Source: patent US20210317480

Columns and labels:
[1] = test system: T1, G8PEX from bacteriophage I2-2
T1 sequence: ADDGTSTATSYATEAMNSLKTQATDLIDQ

[2] = test system: T2, G8PEX from bacteriophage f1
T2 sequence: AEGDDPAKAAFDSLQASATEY

[3] = test system: T3, G8PEX ortholog peptide from L. monocytogenes (strain M7) bacteriophage M7
T3 sequence: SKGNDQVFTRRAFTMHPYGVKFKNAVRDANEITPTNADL

[4] = test system: T4, G8PEX, extracellular region of the major coat protein G8P from bacteriophage M13
T4 sequence: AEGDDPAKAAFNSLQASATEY

[5] = test system: T5, G8PEX from Pseudomonas phage Pf1
T5 sequence: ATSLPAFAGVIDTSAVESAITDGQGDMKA

In the case of “Streptococcus pyogenes Cas9 nuclease (SpCas9)”, the “in vitro cleavage activity of SpCas9” value [1] is reported as “could efficiently inhibit the cleavage activity of SpCas9 in vitro”, the “in vitro cleavage activity of SpCas9” value [2] is reported as “could efficiently inhibit the cleavage activity of SpCas9 in vitro” and the “DNA cleavage activity of SpCas9” value [3] is reported as “efficiently prohibited SpCas9 to bind to sgRNA (FIG. 7d) or cleave DNA substrate (FIG. 7e)”. For the same substance, the “in vitro DNA cleavage by pre-assembled Cas9 RNP” value [4] was “the activity of pre-assembled Cas9 RNP was not affected by G8PEX”, the “in vitro cleavage activity of SpCas9” value [4] was “could efficiently inhibit the cleavage activity of SpCas9 in vitro” and the “in vitro cleavage activity of SpCas9” value [5] was “could efficiently inhibit the cleavage activity of SpCas9 in vitro”.
